Data: paper PMC6733756
Read-outs that look alike come from different tables or passages of the source.

Key:
[1] = target: human XCR1 (human) (UniProt P46094); experiment: radioligand binding
[2] = target: human XCR1 (human) (UniProt P46094)
[3] = target: human XCR1 (human) (UniProt P46094); remark: listed apart in the source
[4] = target: human XCR1 (human) (UniProt P46094); experiment: radioligand binding; remark: listed apart in the source

Molecule: XCL1 ΔVal^1 (from UniProt P47992 22-114) (ligand)
- fold decrease in affinity against XCL1 CC3 [1]: > 100 fold

Molecule: XCL1 +Gly^N-term (from UniProt P47992 22-114) (ligand)
- fold decrease in affinity against XCL1 CC3 [1]: > 100 fold
- calcium flux in XCR1-expressing HEK293 cells, EC50 [2]: > 268 nM

B1: XCL1 CC3 (ligand)
chain: VGSEVSDKRTCVSLTTQRLPCSRIKTYTITEGSLRAVIFITKRGLKVCADPQATWVRDCVRSMDRKSNTRNNMIQTKPTGTQQSTNTAVTLTG
- ^3H-IP3 accumulation in COS-7 cells transfected with XCR1 and Gqi4myr, EC50 [3]: 14.1 nM
- EC50 [1]: 1 nM

B2: XCL1 CC3 V1A (ligand)
chain: AGSEVSDKRTCVSLTTQRLPCSRIKTYTITEGSLRAVIFITKRGLKVCADPQATWVRDCVRSMDRKSNTRNNMIQTKPTGTQQSTNTAVTLTG
- calcium flux in XCR1-expressing HEK293 cells, EC50 [2]: > 268 nM

B3: XCL1 WT (ligand)
chain: VGSEVSDKRTCVSLTTQRLPVSRIKTYTITEGSLRAVIFITKRGLKVCADPQATWVRDVVRSMDRKSNTRNNMIQTKPTGTQQSTNTAVTLTG
- ^3H-IP3 accumulation in COS-7 cells transfected with XCR1 and Gqi4myr, EC50 [3]: 17.6 nM
- EC50 [1]: 7.7 nM

B4: XCL1 CC3 G2A (ligand)
chain: VASEVSDKRTCVSLTTQRLPCSRIKTYTITEGSLRAVIFITKRGLKVCADPQATWVRDCVRSMDRKSNTRNNMIQTKPTGTQQSTNTAVTLTG
- fold decrease in affinity against XCL1 CC3 [1]: > 100 fold
- calcium flux in XCR1-expressing HEK293 cells, EC50 [2]: > 268 nM

B5: XCL1 CC3 S3A (ligand)
chain: VGAEVSDKRTCVSLTTQRLPCSRIKTYTITEGSLRAVIFITKRGLKVCADPQATWVRDCVRSMDRKSNTRNNMIQTKPTGTQQSTNTAVTLTG
- calcium flux in XCR1-expressing HEK293 cells, EC50 [2]: > 268 nM

B6: XCL1 CC3 D7A (ligand)
chain: VGSEVSAKRTCVSLTTQRLPCSRIKTYTITEGSLRAVIFITKRGLKVCADPQATWVRDCVRSMDRKSNTRNNMIQTKPTGTQQSTNTAVTLTG
- EC50 [4]: < 1 nM
- calcium flux in XCR1-expressing HEK293 cells, EC50 [2]: > 268 nM

B7: XCL1 CC3 K8A (ligand)
chain: VGSEVSDARTCVSLTTQRLPCSRIKTYTITEGSLRAVIFITKRGLKVCADPQATWVRDCVRSMDRKSNTRNNMIQTKPTGTQQSTNTAVTLTG
- EC50 [4]: < 1 nM
- EC50 [1]: 5.2 nM
- calcium flux in XCR1-expressing HEK293 cells, EC50 [2]: > 268 nM

B8: XCL1 CC3 V5A (ligand)
chain: VGSEASDKRTCVSLTTQRLPCSRIKTYTITEGSLRAVIFITKRGLKVCADPQATWVRDCVRSMDRKSNTRNNMIQTKPTGTQQSTNTAVTLTG
- EC50 [1]: 8 nM

B9: XCL1 CC3 S6A (ligand)
chain: VGSEVADKRTCVSLTTQRLPCSRIKTYTITEGSLRAVIFITKRGLKVCADPQATWVRDCVRSMDRKSNTRNNMIQTKPTGTQQSTNTAVTLTG
- EC50 [1]: < 1 nM

B10: XCL1 CC3 R9A (ligand)
chain: VGSEVSDKATCVSLTTQRLPCSRIKTYTITEGSLRAVIFITKRGLKVCADPQATWVRDCVRSMDRKSNTRNNMIQTKPTGTQQSTNTAVTLTG
- EC50 [1]: < 1 nM

B11: XCL1 CC3 T10A (ligand)
chain: VGSEVSDKRACVSLTTQRLPCSRIKTYTITEGSLRAVIFITKRGLKVCADPQATWVRDCVRSMDRKSNTRNNMIQTKPTGTQQSTNTAVTLTG
- EC50 [4]: < 1 nM

B12: XCL1 CC3 E4A (ligand)
chain: VGSAVSDKRTCVSLTTQRLPCSRIKTYTITEGSLRAVIFITKRGLKVCADPQATWVRDCVRSMDRKSNTRNNMIQTKPTGTQQSTNTAVTLTG
- fold decrease in affinity against XCL1 CC3 [1]: > 100 fold
